Source: US6824991B2, “Human bad polypeptides, encoding nucleic acids and methods of use” (IDUN Pharmaceuticals Inc., priority 1996, dated 2004)

T1: Bak (Homo sapiens, UniProt Q16611)
T1 construct: expressed in transfected cells; host or cells: yeast strain EGY191
T1 sequence (Q16611 1-190 limits assumed): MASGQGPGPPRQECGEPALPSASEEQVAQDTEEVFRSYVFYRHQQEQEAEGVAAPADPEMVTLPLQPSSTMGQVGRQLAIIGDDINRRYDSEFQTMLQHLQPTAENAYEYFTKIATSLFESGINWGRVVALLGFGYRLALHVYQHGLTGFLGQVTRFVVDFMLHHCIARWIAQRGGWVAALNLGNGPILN

T2: Bad (Homo sapiens, UniProt Q92934)
T2 construct: expressed in transfected cells; host or cells: yeast strain EGY191
T2 sequence (Q92934 1-168): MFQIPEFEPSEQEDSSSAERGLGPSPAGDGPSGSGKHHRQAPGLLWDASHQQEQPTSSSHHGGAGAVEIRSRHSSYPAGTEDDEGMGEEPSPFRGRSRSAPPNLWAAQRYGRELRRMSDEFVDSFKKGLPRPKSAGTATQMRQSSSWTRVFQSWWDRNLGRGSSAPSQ


What was measured:
Bak = target: T1, Bak; experiment: yeast two-hybrid assay, human Bad bait with Bak prey; format: binding; details: yeast strain EGY191, LexA-Bad bait, B42 prey, FIG. 3
From the text: (§1) To assess whether Bcl-2 family members bind to or otherwise interact with human Bad and to map their binding domains, a yeast two-hybrid system was employed using the above described clones. Briefly, the full length human Bad sequence was subcloned into the yeast 2-hybrid vector pEGE202, or “bait-vector” to express Bad as a fusion protein with the DNA-binding protein LexA (Ruden et al., Nature (1991) 350:426-430). Human Bcl-2, Bcl-X, Bax, Bak and Bad were similarly cloned into the yeast 2-hybrid vector pJG4-5, or “prey-vector” to expressed these Bcl-2 family members as fusion proteins with the transcriptional activator B42 (Gyuris et al., Cell (1993) 75:791-803). Briefly, the full length human Bad sequence was amplified by PCR and subcloned into the bait-vector. For the PCR reaction we used the following primers: 5′ATCAGTGAATTCACTATGTTCCAGATCCCA GAC3′ (SEQ ID NO: 4) and 5′ATCGATCTCGAGTCACTGGGAGGGGGCGGA GCT3′ (SEQ ID NO: 5). […]
(§2) To determine if human Bad binds to any of the above Bcl-2 family members, the Bad-bait plasmid was cotransformed with every prey plasmid and the reporter plasmid p18-34 into the yeast strain EGY191. […] The reaction was stopped with 0.4 M NaOH and the plate was read at an OD 420 nm. Protein-protein interaction was measured as beta-galactosidase activity using the following equation: OD 420:(OD 600×0.1 ml×ONPG reaction time).

Bad = target: T2, Bad; experiment: yeast two-hybrid assay, human Bad bait with Bad prey; format: binding; details: yeast strain EGY191, LexA-Bad bait, B42 prey, FIG. 3
From the text: as §1, §2

Bcl-2 = target: T3, Bcl-2 (Homo sapiens, UniProt P10415); experiment: yeast two-hybrid assay, human Bad bait with Bcl-2 prey; format: binding; details: yeast strain EGY191, LexA-Bad bait, B42 prey, FIG. 3
T3 construct: expressed in transfected cells; host or cells: yeast strain EGY191
T3 sequence (P10415 1-218 limits assumed): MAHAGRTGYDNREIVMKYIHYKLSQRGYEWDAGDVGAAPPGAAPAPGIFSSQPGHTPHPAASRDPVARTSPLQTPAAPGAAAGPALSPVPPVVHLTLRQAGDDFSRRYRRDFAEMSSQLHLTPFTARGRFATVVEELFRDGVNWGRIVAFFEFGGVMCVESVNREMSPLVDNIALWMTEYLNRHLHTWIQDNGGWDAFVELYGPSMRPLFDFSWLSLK
From the text: as §1, §2

Bcl-XL = target: T4, Bcl-XL (Homo sapiens, UniProt Q07817); experiment: yeast two-hybrid assay, human Bad bait with Bcl-XL prey; format: binding; details: yeast strain EGY191, LexA-Bad bait, B42 prey, FIG. 3
T4 construct: expressed in transfected cells; host or cells: yeast strain EGY191
T4 sequence (Q07817 1-212 limits assumed): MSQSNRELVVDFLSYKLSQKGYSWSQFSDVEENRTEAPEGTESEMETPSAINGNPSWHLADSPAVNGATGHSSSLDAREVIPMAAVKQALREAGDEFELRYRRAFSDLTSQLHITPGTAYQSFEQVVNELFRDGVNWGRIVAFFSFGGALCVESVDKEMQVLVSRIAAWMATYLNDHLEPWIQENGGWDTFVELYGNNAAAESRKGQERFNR
From the text: as §1, §2

Bax = target: T5, Bax (Homo sapiens, UniProt Q07812); experiment: yeast two-hybrid assay, human Bad bait with Bax prey; format: binding; details: yeast strain EGY191, LexA-Bad bait, B42 prey, FIG. 3
T5 construct: expressed in transfected cells; host or cells: yeast strain EGY191
T5 sequence (Q07812 1-174 limits assumed): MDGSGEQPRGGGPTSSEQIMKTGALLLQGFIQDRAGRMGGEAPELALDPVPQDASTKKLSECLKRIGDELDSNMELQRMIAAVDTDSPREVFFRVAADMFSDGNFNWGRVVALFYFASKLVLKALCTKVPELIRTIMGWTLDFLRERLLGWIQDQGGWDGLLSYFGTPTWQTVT
From the text: as §1, §2

GST-Bcl-XL = target: T6, GST-Bcl-XL (Homo sapiens, UniProt Q07817); experiment: ELISA-type binding assay, plate-coated 6HBad with GST-Bcl-XL; details: FIG. 4
T6 construct: made in house; host or cells: E. coli XL1-Blue (pGEX constructs); E. coli BL21 pLysS (6HBad)
T6 sequence (Q07817 1-211 limits assumed): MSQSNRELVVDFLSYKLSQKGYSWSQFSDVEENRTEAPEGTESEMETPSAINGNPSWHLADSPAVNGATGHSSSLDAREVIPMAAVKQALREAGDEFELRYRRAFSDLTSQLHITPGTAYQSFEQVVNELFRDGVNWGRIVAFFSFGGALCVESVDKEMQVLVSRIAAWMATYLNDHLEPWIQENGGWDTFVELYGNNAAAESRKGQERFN
From the text: To generate fusion proteins for these screening assays, Bad and Bcl-xL were cloned into pET-15b (Novagen) and pGEX 4T1 (Pharmacia) vectors, respectively. The pET15b-bad construct was made as follows. Full length bad cDNA was amplified by PCR using cDNA BM1 as template and primers containing NdeI (5′) and XhoI (3′) restriction sites (5′ primer: 5′-GGGAATTCCATATGTTCCAGATCCCAGAG-3′ (SEQ ID NO: 10)); 3′ primer: 5′-TACAGTCTCGAGTCACTGGGAGGGGGCGGAGCT-3′ (SEQ ID NO: 11)). The PCR product was then digested with NdeI/XhoI and ligated into the NdeI and XhoI sites of pET15b. The above primer sequences were chosen such that the bad ORF sequence would be in frame with 5′ vector sequence encoding a six residue Histidine tag. The final construct was termed pET-15 6H Bad. […]

GST-Bcl-2 = GST-Bcl-2 (Homo sapiens, UniProt P10415); experiment: ELISA-type binding assay, plate-coated 6HBad with GST-Bcl-2; details: anti-GST detection, FIG. 4
Chain of GST-Bcl-2 (P10415 whole entry): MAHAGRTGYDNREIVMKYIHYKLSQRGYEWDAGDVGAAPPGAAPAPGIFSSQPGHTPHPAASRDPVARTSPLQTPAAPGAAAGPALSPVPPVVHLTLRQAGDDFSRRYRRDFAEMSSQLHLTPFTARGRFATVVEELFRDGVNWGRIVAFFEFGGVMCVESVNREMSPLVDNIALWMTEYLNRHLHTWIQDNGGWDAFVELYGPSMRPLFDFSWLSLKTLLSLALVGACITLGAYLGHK

Molecule	protein-protein interaction with Bak (beta-galactosidase activity) (Bak)	protein-protein interaction with itself (beta-galactosidase activity) (Bad)	protein-protein interaction with Bcl-2 (beta-galactosidase activity) (Bcl-2)	protein-protein interaction with Bcl-XL (beta-galactosidase activity) (Bcl-XL)	protein-protein interaction with Bax (beta-galactosidase activity) (Bax)	relative binding affinity to GST-Bcl-xL in ELISA (GST-Bcl-XL; compared with GST-Bcl-2 and GST-Bax)	interaction with GST-Bcl-XL in ELISA (GST-Bcl-XL; plate-coated 6HBad, anti-GST detection)	interaction with GST-Bcl-2 in ELISA (GST-Bcl-2)
human Bad: human Bcl-xL/Bcl-2 associated death promoting polypeptide, SEQ ID NO:2, encoded by cDNA clone BM1 (protein, listed as Homo sapiens) MFQIPEFEPSEQEDSSSAERGLGPSPAGDGPSGSGKHHRQAPGLLWDASHQQEQPTSSSHHGGAGAVEIRSRHSSYPAGTEDDEGMGEEPSPFRGRSRSAPPNLWAAQRYGRELRRMSDEFVDSFKKGLPRPKSAGTATQMRQSSSWTRVFQSWWDRNLGRGSSAPSQ	no interactions were observed	no interactions were observed	interacts	interacts	no interactions were observed	–	–	–
6HBad: full length human Bad with a six residue Histidine tag, expressed from pET-15 6H Bad in E. coli (protein, left off: small tags and cut ends) MFQIPEFEPSEQEDSSSAERGLGPSPAGDGPSGSGKHHRQAPGLLWDASHQQEQPTSSSHHGGAGAVEIRSRHSSYPAGTEDDEGMGEEPSPFRGRSRSAPPNLWAAQRYGRELRRMSDEFVDSFKKGLPRPKSAGTATQMRQSSSWTRVFQSWWDRNLGRGSSAPSQ	–	–	–	–	–	highest affinity	interacts	interacts
